± gives the uncertainty stated by the source.

The nature of this data set: amyloid nucleation score (Sup35N fusion, yeast selection) (log enrichment); library NNK1; higher = more nucleation; inactive = no reads after selection. Summed up:
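The nucleation score is the log enrichment of output over input reads, calculated with DiMSum and centred on the mode score of non-aggregating sequences. Sequences with under 100 input reads were excluded. Reads came from Illumina sequencing of plasmid inserts from psi-negative yeast expressing Sup35N fused to peptides of 20 random codons, induced 24 hours with 100 μM copper sulfate and grown 7 days at 30°C without adenine and uracil.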
As to FRKEMIFYS, the amyloid nucleation score came out at 1.54 ± 0.47. The substance FRKTMLWVLVVMGPIFTGSR returned an amyloid nucleation score of 0.548 ± 0.87. FRNLTVGAWRPMPGERMPIG returned an amyloid nucleation score of -0.182 ± 0.42. The figure for FRSGTHWSMDFGHAKEIRR is 1.39 ± 0.14; for FRSTPWNPMSTELVIFSPSV it is 1.16 ± 0.43; for FRVMILLLTEMWSMESNRDL it is 3.4 ± 0.14.

For the substance FRVYFIVRVPYI, the amyloid nucleation score was 1.36 ± 0.52. Regarding FRWRSSGGLVCFLDAVVVSV, the amyloid nucleation score is -0.249 ± 0.38. For the substance FSALPTLASGLGFGR, the amyloid nucleation score stood at 0.604 ± 0.73. FSDVCGPSPLCW gave an amyloid nucleation score of 0.142 ± 0.44. Turning to FSFDLLSVESGITNV, the amyloid nucleation score was -0.054 ± 0.82.

In the case of FSFVSECGLAGFYPRE, the amyloid nucleation score is 0.35 ± 0.55. With FSGGGNITACGCV the figure was -0.385 ± 0.65; with FSGVTMR, 1.7 ± 0.32. The figure for FSHIELLERAVLMSRVRFLW is -0.514 ± 1.5; for FSHLKYNSVHFIPLRDFDSL it is 0.938 ± 0.41; for FSLCDSKSKWLLYCSGSFNL it is 2.69 ± 0.14. FSPRIALVFRKYQGMASQPP returned an amyloid nucleation score of 4.45 ± 0.061. Take FSRCCTFSSDYFNARCIERN: the amyloid nucleation score worked out at 1.22 ± 0.23. With FSRFWISSKHT the figure was -1.33 ± 1.3; with FSSCLTMRLV, -0.365 ± 1.6. In turn, FSSSTRSLNNPLL gave an amyloid nucleation score of 0.006 ± 0.44. On to FSYCEWRDKCCERWSFLDNQ, for which the amyloid nucleation score is 1.11 ± 0.49. As for FTAWP, the amyloid nucleation score is -0.242 ± 0.3.

FTMFFPMGSVC came in with an amyloid nucleation score of 0.292 ± 0.64. FTRKEVVPMWDKEDRVCIGD had an amyloid nucleation score of 0.02 ± 0.74. Turning to FTRWLSFKTYG, the amyloid nucleation score is -0.283 ± 0.66. With FTSFFVSV the figure was -1.91 ± 1.9; with FTTDVERSVLFEVNLWSNGW, 5.33 ± 0.066; with FTVLVELALFMRSCLSRGFN, -0.261 ± 0.27. The figure for FVCWVGTGLMIRVAIDQCWR is -0.202 ± 0.31.

For the substance FVEMVYFNECCIPKFDIEYV, the amyloid nucleation score amounted to 1.6 ± 0.17. With FVGGPPMIQYVVPV, the amyloid nucleation score came to 0.326 ± 0.42. With FVLRLS the entry was “inactive”; with FVLRV, 0.423 ± 0.47. Substance FVMSHSL yielded an amyloid nucleation score of 0.987 ± 0.43. On to FVNFGFAGIASWHFVLMFIK, for which the amyloid nucleation score is 0.1 ± 0.27. FVSTVYLY returned an amyloid nucleation score of 5.35 ± 0.064. The figure for FVTIWWLYRTCIFLSTVRTT is 1.5 ± 0.26; for FVTMAVWGLYTCFKVHKGIV it is -0.4 ± 0.78; for FVVSLECTTRRVGLGALC it is “inactive”. The substance FVVVVGSHLGDGFCDCWVNC returned an amyloid nucleation score of 2.03 ± 0.24. FVYLVHLLMNGRVIKLFRDM yielded an amyloid nucleation score of -0.372 ± 0.27.

Substance FWCMALK yielded an amyloid nucleation score of -1.05 ± 2.4. With FWDVTPWCHSRDCAVLFSRA, the amyloid nucleation score is -1.37 ± 2.7. With FWEYSSRNPQSHYTVLRSKV the figure was -0.509 ± 0.32; with FWREHTMR, “inactive”; with FWVDCSRVVRLKIQFNLV, 0.864 ± 0.42. With FWVFAITFTAERKLQADDLF the figure was 1.84 ± 0.15. With FYEASDRGERLEQKLKLTVL the figure was 1.51 ± 0.49; with FYFSASATIL, -0.093 ± 0.81. In the case of FYIILNVLFPRQVTCSDK, the amyloid nucleation score came to 5.7 ± 0.075. FYITQTEGQLLLCR had an amyloid nucleation score of -0.148 ± 0.55. With FYMGGDCVYNECQGEIRLSL the figure was -0.234 ± 0.7; with FYPIYGFRWTIFYQPALYNL, -1.08 ± 1.7.

FYPLF came in with an amyloid nucleation score of 1.27 ± 0.66. In turn, FYVSLRWV returned an amyloid nucleation score of 0.105 ± 0.45.

With FYVVRGHGHCWM, the amyloid nucleation score was 0.68 ± 0.33. The figure for FYYYSSCHYWYC is -0.13 ± 0.79; for GAAQWMKNSTIGHARFIADL it is 0.2 ± 0.39; for GAICQGLINDVVGRGDGMMR it is 1.19 ± 0.97. With GALVCRCDGCYKSMGKAIMA the figure was -0.243 ± 0.56.

With GCGFS, the amyloid nucleation score was -0.126 ± 0.4. Turning to GCIECEGAGCAPIYGVEWLD, the amyloid nucleation score amounted to 0.122 ± 0.84.

GCIWWPTDRPLLLSPAMSYS: the amyloid nucleation score amounted to 0.133 ± 0.37. In turn, GCLAPLLIDLCCFQMRNSSN came in with an amyloid nucleation score of 0.05 ± 0.49. GCRMWFAWQVGVILMVDMFI returned an amyloid nucleation score of 0.307 ± 0.81. The figure for GCSVVNMADMG is 1.29 ± 0.45.

GCVVI registered an amyloid nucleation score of 0.258 ± 0.26.

In the case of GDKSFSYCSLCCLFWARLPR, the amyloid nucleation score worked out at 5.83 ± 0.064. GEGQQSGVVSNLSGYRSNS registered an amyloid nucleation score of 0.418 ± 0.51. GELLTLHITGLNEVLVNTSM yielded an amyloid nucleation score of -0.21 ± 0.31.

In turn, GELWLAHLLLRSRVRTHRCP gave an amyloid nucleation score of 5.78 ± 0.068. The figure for GENPGQDYASGFLNVFKNYL is 1.01 ± 0.54; for GFCYM it is 0.997 ± 0.35; for GFDKLVGPCGYGLRRGSLWR it is 0.781 ± 0.52. The figure for GFGLVRIPIMFNEAPEVVSK is -0.133 ± 0.46; for GFISIGP it is -0.068 ± 0.29. With GFKGQRNNAIQVMGKKNRLQ the figure was -0.238 ± 0.59; with GFKVVDTAWFL, -0.116 ± 0.27. Substance GFLIGRSD gave an amyloid nucleation score of 0.022 ± 0.43.

In turn, GFNKSSSGFVSSNGDIDYWD returned an amyloid nucleation score of -1.68 ± 2.1. GFSEKQNY displayed an amyloid nucleation score of 0.383 ± 0.54. The figure for GFSLDRFSDHVLMGNSD is -0.585 ± 0.23; for GFSRQSTWMCRKWSTNPRTW it is 1.15 ± 0.34. With GFTSHFRYLWHILIRYWSNP, the amyloid nucleation score came to 0.442 ± 0.39. Take GFVMKLLL: the amyloid nucleation score is 1.35 ± 0.21. The figure for GFVSAKLIPCAVLQKGLLPV is 0.313 ± 0.51; for GFVTKDWLSVMRYIYQMLTS it is -0.016 ± 0.4; for GFYGCYSYVVLGGRVEP it is -1.02 ± 2.4.

GFYGNIYFDNLRLNVMTRRG registered an amyloid nucleation score of 9.21 ± 0.061. The figure for GGCVGLCFRYSFPTCDSC is 1.65 ± 0.42; for GGEDLRKFLDMFVIVSKNTT it is 0.67 ± 0.46.

As for GGFFICQGDTRVV, the amyloid nucleation score amounted to 0.222 ± 0.58. In turn, GGFIR returned an amyloid nucleation score of -0.516 ± 1.1. In turn, GGFSNFMMVCNVATFSSNQL displayed an amyloid nucleation score of 3.47 ± 0.19.

In turn, GGHHVSPVCLEWNNLRWDI had an amyloid nucleation score of 0.897 ± 0.78. Substance GGKRVGNIVVRRAQIIIGRR showed an amyloid nucleation score of 1.07 ± 0.7. For GGLICTGNFY, the amyloid nucleation score entry is “inactive”. In the case of GGLVYRLEKDSF, the amyloid nucleation score entry was “inactive”.

With GGNKPCG, the amyloid nucleation score turned out to be 2.11 ± 0.57.

The substance GGSFYKAILFNRKCVYVGSR yielded an amyloid nucleation score of 0.942 ± 0.51. As to GGVLGSTKSLFVDPANLGGL, the amyloid nucleation score result was “inactive”.

As to GGWSGRSLRDCVCMVHIKVG, the amyloid nucleation score is 0.071 ± 0.75. As to GGYIDPLS, the amyloid nucleation score result was “inactive”. The entry for GHPVWRCFSDGSSPLFWDYG is “inactive”.

Values taken from the supplement of paper PMC12042874.
